What all share (experiment): high-throughput RNA pulldown from lysate on Ni-NTA beads; HRP: 50 mM Tris pH 8, 150 mM NaCl, 1 mM beta-mercaptoethanol, 50 ug/ml BSA, 3 ug/ml yeast RNA, 0.5% heparin; ITC and FP: Tris pH 8, 200 mM KCl, 5% glycerol; MST: 50 mM Tris pH 8, 200 mM NaCl, 1 mM DTT, BSA, heparin, 0.05% Tween 20
Holding throughout (settings): tags: N-terminal His-eGFP

Data set [1] addresses T1, GFP-9S library array, motif 4 ND N98V;D124E (synthetic construct, N98V;D124E).
T1 chain: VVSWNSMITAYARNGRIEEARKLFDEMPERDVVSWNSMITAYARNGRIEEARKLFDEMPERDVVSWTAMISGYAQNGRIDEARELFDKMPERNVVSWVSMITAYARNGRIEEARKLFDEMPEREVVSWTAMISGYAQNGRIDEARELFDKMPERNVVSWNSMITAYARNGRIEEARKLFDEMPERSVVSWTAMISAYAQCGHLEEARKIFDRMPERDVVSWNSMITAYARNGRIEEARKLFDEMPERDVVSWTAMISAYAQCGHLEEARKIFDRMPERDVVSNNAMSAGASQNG

In data set [2] the target is T2, GFP-9S library array, motif 4 ND N98K (synthetic construct, N98K).
T2 chain: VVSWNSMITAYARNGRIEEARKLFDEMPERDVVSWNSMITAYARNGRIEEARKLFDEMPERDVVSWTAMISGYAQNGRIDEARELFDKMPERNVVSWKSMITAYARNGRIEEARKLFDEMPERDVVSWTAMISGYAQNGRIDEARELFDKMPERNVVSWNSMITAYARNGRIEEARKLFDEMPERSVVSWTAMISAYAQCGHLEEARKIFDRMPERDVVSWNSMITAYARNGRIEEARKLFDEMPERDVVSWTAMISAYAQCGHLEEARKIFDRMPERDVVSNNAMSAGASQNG

Data set [3] addresses T3, GFP-9S library array, motif 4 ND N98C;D124H (synthetic construct, N98C;D124H).
T3 chain: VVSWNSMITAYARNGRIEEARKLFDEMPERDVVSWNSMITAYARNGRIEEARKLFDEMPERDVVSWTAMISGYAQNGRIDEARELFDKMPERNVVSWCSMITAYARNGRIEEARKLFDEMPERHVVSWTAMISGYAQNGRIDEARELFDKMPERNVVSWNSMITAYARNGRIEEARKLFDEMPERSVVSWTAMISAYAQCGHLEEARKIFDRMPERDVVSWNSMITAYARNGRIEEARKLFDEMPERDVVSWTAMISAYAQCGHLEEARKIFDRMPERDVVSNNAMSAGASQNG

The target of data set [4] is T4, GFP-9S library array, motif 4 ND N98G;D124R (synthetic construct, N98G;D124R).
T4 chain: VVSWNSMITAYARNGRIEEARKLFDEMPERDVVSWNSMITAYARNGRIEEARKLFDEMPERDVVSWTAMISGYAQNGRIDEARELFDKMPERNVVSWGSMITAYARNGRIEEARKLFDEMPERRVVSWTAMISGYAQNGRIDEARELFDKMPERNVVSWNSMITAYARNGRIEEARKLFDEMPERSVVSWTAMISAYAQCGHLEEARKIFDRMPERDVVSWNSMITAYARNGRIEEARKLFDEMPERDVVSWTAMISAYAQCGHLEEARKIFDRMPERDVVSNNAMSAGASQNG

Data set [5] deals with T5, GFP-9S library array, motif 4 ND N98W;D124V (synthetic construct, N98W;D124V).
T5 chain: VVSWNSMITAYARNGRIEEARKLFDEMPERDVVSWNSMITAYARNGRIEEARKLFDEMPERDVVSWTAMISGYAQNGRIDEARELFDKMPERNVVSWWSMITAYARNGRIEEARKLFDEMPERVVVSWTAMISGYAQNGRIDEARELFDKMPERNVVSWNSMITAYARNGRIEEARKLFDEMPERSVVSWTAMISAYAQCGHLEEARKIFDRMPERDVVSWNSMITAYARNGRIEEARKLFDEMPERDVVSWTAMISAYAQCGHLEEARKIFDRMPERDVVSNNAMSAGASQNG

The Kd is the equilibrium constant for the complex coming apart. Low values mean a tighter complex, high ones a looser complex.

B1: Cy5-rpoA (ssRNA)
RNA: AUUACACGUGA
With B1, the Kd was determined as 287 nM in data set [1] (label: 5' Cy5); 189 nM in data set [2] (label: 5' Cy5); 124 nM in data set [3] (label: 5' Cy5); 100 nM in data set [4] (label: 5' Cy5); 41.1 nM in data set [5] (label: 5' Cy5).

B2: IR-rpoA-A (ssRNA)
RNA: AUUAAACGUGA
In the case of B2, the equilibrium dissociation constant (Kd) in data set [1] (label: 5' IRDye 800CW) amounted to 168 nM; in data set [2] (label: 5' IRDye 800CW), 409 nM; in data set [3] (label: 5' IRDye 800CW) it was 25.4 nM; in data set [4] (label: 5' IRDye 800CW) it was 158 nM; in data set [5] (label: 5' IRDye 800CW), 95.6 nM.

B3: Cy5-rpoA-G (ssRNA)
RNA: AUUAGACGUGA
As to B3, the Kd in data set [1] (label: 5' Cy5) is 167 nM; in data set [2] (label: 5' Cy5), 315 nM; in data set [3] (label: 5' Cy5), 57.7 nM; in data set [4] (label: 5' Cy5), 115 nM; in data set [5] (label: 5' Cy5), 50.8 nM.

B4: IR-rpoA-U (ssRNA)
RNA: AUUAUACGUGA
Turning to B4, the Kd in data set [1] (label: 5' IRDye 800CW) worked out at 244 nM; in data set [2] (label: 5' IRDye 800CW), 279 nM; in data set [3] (label: 5' IRDye 800CW) it was 152 nM; in data set [4] (label: 5' IRDye 800CW), 116 nM; in data set [5] (label: 5' IRDye 800CW) it was 100 nM.

These data come from publication PMC8809517, “Cofactor-independent RNA editing by a synthetic S-type PPR protein”.
